Measured values: US20130224191A1, “NOTUM PROTEIN MODULATORS AND METHODS OF USE” (priority 2010, published 2013)
“Also recorded” adds a separate entry of the source.

Key:
[1] = target: T1, hNotum-His (His tagged human Notum) (human, UniProt Q6P988 20-496); test: sandwich ELISA: SC2.D2.2 coated at 2 ug/ml captures Notum-His, detected with biotinylated mouse polyclonal anti-Notum 0.5 ug/ml and streptavidin-HRP, TMB, OD450
T1 construct: also called human Notum-His; NOTUM-StrepHis
T1 sequence: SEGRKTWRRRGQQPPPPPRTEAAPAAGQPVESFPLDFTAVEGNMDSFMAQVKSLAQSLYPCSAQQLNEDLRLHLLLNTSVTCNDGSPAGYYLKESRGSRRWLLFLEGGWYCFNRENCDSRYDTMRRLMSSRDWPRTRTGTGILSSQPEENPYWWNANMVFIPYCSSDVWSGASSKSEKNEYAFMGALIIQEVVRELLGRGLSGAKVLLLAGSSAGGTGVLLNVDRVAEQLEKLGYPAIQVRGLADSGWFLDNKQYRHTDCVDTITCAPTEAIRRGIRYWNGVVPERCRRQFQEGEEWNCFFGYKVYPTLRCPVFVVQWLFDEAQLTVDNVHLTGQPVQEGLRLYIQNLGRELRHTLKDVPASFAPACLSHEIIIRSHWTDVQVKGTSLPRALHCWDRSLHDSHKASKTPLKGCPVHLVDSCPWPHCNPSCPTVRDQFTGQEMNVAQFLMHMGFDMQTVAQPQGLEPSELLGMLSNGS
Method: More specifically, murine SC2.D2.2 was absorbed on standard ELISA plates at 2 μg/ml in a 50 mM sodium carbonate buffer at pH9.6. After washing the plates with PBS containing 0.05% (v/v) Tween-20 (PBST), the plates were blocked in PBS containing 2% (w/v) bovine serum albumin (BSA buffer) for two hours at ambient temperature. The content of the plates was flicked off, and purified recombinant Notum-His at varying concentrations (i.e., to provide the standard curve) or patient samples diluted in BSA buffer were added to the plates for a minimum of two hours at ambient temperature. The plates were washed in PBST before adding Notum-specific mouse polyclonal antibody conjugated to biotin at 0.5 μg/ml in BSA buffer. After incubation for one hour, the plate was washed again with PBST and incubated for 30 minutes with a 1:2000 dilution of Streptavidin conjugated to horse radish peroxidase (Jackson Immuno Research). After washing all plates twice with PBST, 100 μl TMB substrate (Thermo Scientific) was added to the wells and incubated for 30 minutes in the dark. Color reaction was stopped by adding 100 μl/well 2M sulfuric acid. Absorbance at OD 450 nm was read in all wells using a standard plate reader.

macaque Notum-Fc = test: Neutralization of macaque Notum in 293.TCF assay; format: cell-based
Method: Using the 293.TCF cells, purified SC2.D2.2 and SC2.A106 antibodies were tested for their ability to neutralize murine Notum-His or macaque Notum-Fc activity as follows. 2.5×10^4 293.TCF cells were plated per well of a 96-well tissue culture plate in 50 μL of serum-free medium. After 23 hours of serum starvation, 10 μL of DMEM+0.2% FBS containing the Notum proteins at various concentrations were mixed with 15 μL of purified antibody at various concentrations, and allowed to incubate for 5 minutes at room temperature. The 25 μL antibody/Notum mixture was then added to the 293.TCF cells. After 1 hour, 25 μL of Wnt3A or control L-cell CM were added to each well. Eighteen hours after addition of CM, 100 μL of One-Glo solution (ProMega Corp.) was added to each well. The contents of each well were mixed thoroughly to lyse the cells, 100 μL of lysate transferred to black 96-well plates, and the luminescence read after 5 minutes.

Notum = target: T2, Notum (Homo sapiens, UniProt Q6P988); test: Bio-layer interferometry on ForteBIO RED; format: binding; conditions: 250, 125 and 62.5 nM antigen
T2 sequence (Q6P988 20-496): T1 sequence
Method: Three methods were used to characterize the affinity of humanized SC2.D2.2 relative to its analogous mAb with the murine variable region. First, binding signal was measured for a fixed amount of antibody probed against serial dilutions of antigen in an ELISA format. […] Second, the affinity of murine SC2.D2.2 was measured by Biacore using surface plasmon resonance (SPR) to provide the results set forth in FIG. 32A. Based on a concentration series of 12.5, 6.25, 3.125, 1.5625, 0.78125 nM and using a 1:1 Langmuir binding model, the Kd of the antibody binding to antigen was estimated to be less than 0.1 nM. Long off-rates for this interaction made accurate determination of affinity through kinetics difficult. The murine antibody was then directly compared to the humanized derivative using bio-layer interferometry analysis on a ForteBIO RED (ForteBIO, Inc.) with a concentration series of 250, 125, and 62.5 nM antigen.

[2] = target: T3, Notum being secreted from the 293-Notum cells (Homo sapiens, UniProt Q6P988); test: Co-culture Wnt3A assay, effector cells with 293.TCF reporter cells; format: cell-based; conditions: antibody 10 μg/mL
T3 construct: expressed in transfected cells; host or cells: 293T (293.Notum)
T3 sequence (Q6P988 20-496): T1 sequence
Method: In order to more closely model the behavior of Notum producing cells in vivo, co-culture experiments were performed in which effector cells, either parental 293T cells (293.null) or 293T cells expressing soluble Notum (i.e., 293.Notum cells), were mixed in varying ratios with reporter 293.TCF cells. Notum activity or inhibition in the presence of antibodies was then determined from these cell mixtures after treatment with Wnt3A CM. Briefly, three different ratios of effector to reporter cells were tested: 2:1, 1:[…], corresponding to 5×10^4: 2.5×10^4, 2.5×10^4: 2.5×10^4 cells, or 2.5×10^41.0×10^4 cells per well of a 96-well plate by mixing the cells in 50 μL serum free medium per well prior to plating.
For the antibody antagonism experiments, the mixture of cells was plated into wells containing 25 μL of DMEM+0.2% FBS and antibody at a final concentration of 10 μg/mL. Twenty-three hours after plating, 25 μL of Wnt3A or control L-cell CM were added to each well. Eighteen hours after addition of CM, 100 μL of One-Glo solution (ProMega Corp.) was added to each well. The contents of each well were then mixed thoroughly to lyse the cells, 100 μL of lysate transferred to black 96-well plates, and the luminescence read after 5 minutes.

B1: SC2.D2.2 (antibody, V domains shown)
VH: DVQLVESGGGLVQPGGSRKISCAASGFTFSSYGMHWVRQAPEKGLEWVAYISSSTVTTYYADTVKGRFTISRDNANNTLFLQMTSLRSEDTAMYYCSRQNWDGGYFDVWGAGTTVTVSS
VL: DIVLTQSLASLAVSLGQRATISCRASKSVSSSGYSYMHWYQQKPGQPPKLLIYLASNLESGVPARFSGSGSGTDFTLNIHPVEEEDAATYYCQHSRALPLTFGAGTKLELKR
notes: also called murine SC2.D2.2
EC50 (read off the curve) [1]: ~9 ng/mL
inhibition of macaque Notum activity (macaque Notum-Fc): did not inhibit; also recorded: without inhibiting murine or macaque versions of the protein
affinity, binding curves (Notum): excellent affinity
Wnt3A-induced luciferase ([2]; co-cultures of 293.Notum and 293.TCF cells): increases the amount of Wnt3A-induced luciferase
induction of luciferase activity by Wnt3A CM ([2]; co-cultures of 293.null and 293.TCF cells): little effect
